# Results taken from US20140010817A1 (Daiichi Sankyo, published 2014).
# Numbering of substitutions follows the chain as printed.
# B1: Monoclonal Antibody 3 (MAb3) (antibody, V domains shown)
# VH: QVKLEESGGGLVKPGGSLKLSCAASGFSFSRNVMSWVRQTPEKRLEWVATISAGGSYTYYPDSVKGRFTISRDNAKNTLYLQMSSLRSEDTAMYYCARLNYNDNGNYFDYWGQGTTLTVSS
# VL: DIVMTQSTAIMSASLGEKVTMSCRASSSVVYMYWYQQKSDASPKLWIYYTSNLAPGVPARFSGSGSGNSYSLTISSMEGEDAATYYCQQFTSSPYTFGGGTKLEIKR
# B2: Monoclonal Antibody 4 (MAb4) (antibody, V domains shown)
# VH: QVKLEESGAELVKPGASVKMSCKASGYTFTIYNIHWVKQTPRQGLEWIGTIFPVNGDTSYNQRFKGKATLTADKSSNTAYMQLSGLTSEDSALYYCARSTTARAWFPYWGQGTLVTVSA
# VL: HIVITQTQKFMSTSVGDRVSVTCKASQNVGSNVAWYQQKPGQSPKVLIYSASYRYSGVPDRFTGSGSGTDFTLTISNVQSEDLADFFCQQYNTSPFTFGGGTKLEIK
# B3: humanized antibody T14 (antibody, V domains shown)
# VH: EVQLVESGGGLVQPGRSLRLSCAASGFTFSDYYMAWVRQAPGKGLEWVASISYEGSNTNFGDSVKGRFTISRDSSKNTLYLKMNSLRAEDTAVYYCARWAQTGYYFDYWGQGTLVTVSS
# VL: DIQMTQSPSSLSASVGDRVTITCLASEDIYSNLAWYQQKPGKSPKLLIYYANSLNDGVPSRFSGSGSGTDFTLTISRLQPEDFATYYCQQNYDSPYTFGQGTKVEIKR
# notes: also called humanized MAb1 (H5/L2)
# B4: humanized antibody T15 (antibody, V domains shown)
# VH: B3 VH
# VL: B3 VL with R77S
# notes: also called humanized MAb1 (H5/L5)
# B5: humanized antibody T2 (antibody, V domains shown)
# VH: B3 VH with A49S, S74N
# VL: B3 VL
# notes: also called humanized MAb1 (H1/L2)
# B6: humanized antibody T16 (antibody, V domains shown)
# VH: B3 VH with A24G, S74N
# VL: B3 VL
# notes: also called humanized MAb1 (H6/L2)
# B7: humanized antibody T17 (antibody, V domains shown)
# VH: B3 VH with A24G, S74N
# VL: B3 VL with R77S
# notes: also called humanized MAb1 (H6/L5)
# B8: humanized antibody T21 (antibody)
# heavy: not shown
# light: DIQMTQSPSSLSASVGDRVTITCLASEDIYSNLAWYQQKPGKAPKLLIYYANSLNDGVPSRFSGSGSGTDFTLTISRLQPEDFATYYCQQNYDSPYTFGQGTKVEIKRTVAAPSVFIFPPSDEQLKSGTASVVCLLNNFYPREAKVQWKVDNALQSGNSQESVTEQDSKDSTYSLSSTLTLSKADYEKHKVYACEVTHQGLSSPVTKSFNRGEC
# notes: also called humanized MAb1 (H10/L1)
# B9: humanized antibody T4 (antibody, V domains shown)
# VH: B3 VH with S74N
# VL: B3 VL with S43A
# notes: also called humanized MAb1 (H2/L1)
# B10: humanized antibody T8 (antibody, V domains shown)
# VH: B3 VH with A24G
# VL: B3 VL with S43A
# notes: also called humanized MAb1 (H3/L1)
# B11: humanized antibody T10 (antibody, V domains shown)
# VH: B3 VH with A24G
# VL: B3 VL with K45Q, Y87F
# notes: also called humanized MAb1 (H3/L3)
# B12: humanized antibody T11 (antibody, V domains shown)
# VH: B3 VH with A24G
# VL: B3 VL with R77S
# notes: also called humanized MAb1 (H3/L5)
# B13: humanized antibody T3 (antibody, V domains shown)
# VH: B3 VH with A49S, S74N
# VL: B3 VL with K45Q, Y87F
# notes: also called humanized MAb1 (H1/L3)
# B14: humanized antibody T1 (antibody, V domains shown)
# VH: B3 VH with A49S, S74N
# VL: B3 VL with S43A
# notes: also called humanized MAb1 (H1/L1)
# B15: humanized antibody T9 (antibody, V domains shown)
# VH: B3 VH with A24G
# VL: B3 VL
# notes: also called humanized MAb1 (H3/L2)
# B16: humanized antibody T12 (antibody, V domains shown)
# VH: B3 VH with A24G, S75A
# VL: B3 VL with K45Q, Y87F, V104L
# notes: also called humanized MAb1 (H4/L4)
# B17: humanized antibody T19 (antibody)
# heavy: not shown
# light: B8 light
# notes: also called humanized MAb1 (H8/L1)
# B18: humanized antibody T6 (antibody, V domains shown)
# VH: B3 VH with S74N
# VL: B3 VL with K45Q, Y87F
# notes: also called humanized MAb1 (H2/L3)
# B19: humanized antibody T18 (antibody, V domains shown)
# VH: B3 VH with A24G, K82Q
# VL: B3 VL
# notes: also called humanized MAb1 (H7/L2)
# B20: Monoclonal Antibody 2 (MAb2) (antibody, V domains shown)
# VH: EVKLQESGPELKKPGETVKISCKASGYTFRDYPIHWVKQAPGKGLKWMGWINTETGEPTYADDFKGRFAFSLETSANTTYLQINNLKNEDTATYFCTPRFTYWGQGTLVTVSS
# VL: DIVMTQTPSSLAVSVGEKVTMSCKSSQNLLYSGNQKNYLAWFQQKPGQSPKLLIYWASTRESGVPDRFTGSGSGTDFTLTLSSVKAEDLAVYYCQQSYRYPYTSGGGTKLEIKR
# B21: chimerized MAb1 (rat-human chimeric antibody) (antibody, V domains shown)
# VH: EVQLVESGGGLVQPGRSLKLSCVGSGFTFSDYYMAWVRQAPKKGLEWVASISYEGSNTNFGDSVKGRFTISRDSAKSTLYLQMNSLRSEDTATYYCARWAQTGYYFDYWGQGVMVTVSS
# VL: DIQMTQSPASLSASLGETVTIECLASEDIYSNLAWYQQKPGKSPQLLIYYANSLNDGVPSRFSGSGSGTQFSLKINSLQSEDVSIYFCQQNYDSPYTFGAGAKLELKRA
# B22: Monoclonal Antibody 1 (MAb1) (antibody)
# heavy: EVQLVESGGGLVQPGRSLKLSCVGSGFTFSDYYMAWVRQAPKKGLEWVASISYEGSNTNFGDSVKGRFTISRDSAKSTLYLQMNSLRSEDTATYYCARWAQTGYYFDYWGQGVMVTVSSAETTAPSVYPLAPGTALKSNSMVTLGCLVKGYFPEPVTVTWNSGALSSGVHTFPAVLQSGLYTLTSSVTVPSSTWSSQAVTCNVAHPASSTKVDKKIVPRECNPCGCTGSEVSSVFIFPPKTKDVLTITLTPKVTCVVVDISQNDPEVRFSWFIDDVEVHTAQTHAPEKQSNSTLRSVSELPIVHRDWLNGKTFKCKVNSGAFPAPIEKSISKPEGTPRGPQVYTMAPPKEEMTQSQVSITCMVKGFYPPDIYTEWKMNGQPQENYKNTPPTMDTDGSYFLYSKLNVKKETWQQGNTFTCSVLHEGLHNHHTEKSLSHSPGK
# light: DIQMTQSPASLSASLGETVTIECLASEDIYSNLAWYQQKPGKSPQLLIYYANSLNDGVPSRFSGSGSGTQFSLKINSLQSEDVSIYFCQQNYDSPYTFGAGAKLELKRADAAPTVSIFPPSTKQLATGGASVVCLMNNFYPRDISVKWKIDGTERRDGVLDSVTDQDSKDSTYSMSSTLSLTKADYESHNLYTCEVVHKTSSSPVVKSFNRNEC
# notes: also called rat antibody MAb1; recombinant MAb1
# Key:
# [1] = target: T1, RX protein purified from the culture supernatant of ADSF cells (murine mammary tumor virus (MMTV) …, UniProt P03374 99-474; P03374 475-651); assay: SPR (ProteOn XPR36), antibody immobilized by amine coupling, RX protein as analyte
# T1 construct: also called purified RX protein; ADSF cell-derived RX protein
# Text: (§1) Each antibody was immobilized on a sensor chip (Sensor Chip GLM; Bio-Rad Laboratories, Inc.) by the amine coupling method. The chip was blocked by the addition of 1 M ethanolamine hydrochloride (pH 8.5). ProteOn PBS/Tween, pH 7.4 (PBS, pH 7.4, 0.005% Tween 20) was used as a running buffer solution. The purified RX protein was serially diluted and interacted as an analyte with the immobilized monoclonal antibody to determine the binding affinity. The association rate constant ka and the dissociation rate constant kd were calculated by kinetics analysis using ProteOn Manager™.
# [2] = target: T1, RX protein purified from the culture …; assay: SPR (ProteOn XPR36), antibody immobilised by amine coupling on a GLM chip, purified RX protein as analyte
# Text: as §1
# [3] = target: T1, RX protein purified from the culture …; assay: SPR (ProteOn XPR36) by the method of Example 4: antibody immobilized, RX protein as analyte
# Text: as §1
# [4] = target: T1, RX protein purified from the culture …; assay: SPR (ProteOn XPR36), humanized MAb1 captured on immobilised Protein A/G, RX protein as analyte
# Experimental: Specifically, a Protein A-Protein G fusion protein Protein A/G (Thermo Fisher Scientific K.K.) was immobilized on the GLM sensor chip of ProteOn XPR36 (Bio-Rad Laboratories, Inc.) by the amine coupling method. […] The dissociation constant, i.e., binding affinity, was calculated from the ratio therebetween.
# [5] = target: T1, RX protein purified from the culture …; assay: SPR
Binder,Kd [4] [nM],other results
B1,–,Kd [1]: ~0.1 nM; Kd [2]: 0.62 nM; koff [2]: 0.0017 s⁻¹; kon [2]: 2.8e+06 M⁻¹ s⁻¹
B2,–,Kd [3]: 0.14 nM
B3,0.19,–
B4,0.26,–
B5,1.9,–
B6,1.9,–
B7,2,–
B8,0.42,–
B9,2,–
B10,0.17,–
B11,0.47,–
B12,0.37,–
B13,2.5,–
B14,2.5,–
B15,0.25,–
B16,0.32,–
B17,0.69,–
B18,2,–
B19,0.22,–
B20,–,Kd [1]: ~0.1 nM; Kd [2]: 0.26 nM; koff [2]: 0.00021 s⁻¹; kon [2]: 810000 M⁻¹ s⁻¹
B21,–,Kd [5]: 0.22 nM
B22,–,Kd [1]: ~0.1 nM; Kd [2]: 0.16 nM
